Laboratory results as given in patent US20090149339A1 (published 2009).
Ends that are not written are not given here. * marks the point of attachment. Biotin = O=C1N[C@H]2[C@H](CS[C@H]2CCCCC(=O)*)N1

Tests used:
[1] = biological target: T1, GST-KIAA0303 PDZ domain fusion protein (KIAA0303 AA652-742; PDZ domain 1 of 1) (UniProt P08515 1-218 = GST); assay: A/G assays
T1 construct: also called K303

[2] = biological target: GST-DVL1 PDZ domain fusion protein (human dishevelled segment polarity protein homolog AA248-340); PDZ domain … (human, UniProt P08515 1-218 = GST); assay: A/G assays
Chain of GST-DVL1 PDZ domain fusion protein (human dishevelled segment polarity protein homolog AA248-340); PDZ domain … (P08515 1-218, tags or fused parts left off): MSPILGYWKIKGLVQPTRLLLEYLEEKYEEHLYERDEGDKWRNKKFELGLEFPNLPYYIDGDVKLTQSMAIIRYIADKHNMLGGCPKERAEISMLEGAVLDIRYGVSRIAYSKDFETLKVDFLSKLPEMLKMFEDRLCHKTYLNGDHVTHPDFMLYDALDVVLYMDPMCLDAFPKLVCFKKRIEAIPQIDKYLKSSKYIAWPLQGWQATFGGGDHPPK

[3] = biological target: GST-LIMK2 PDZ domain fusion protein (human LIM domain kinase 2 AA185-275; PDZ domain 1 of 1) (human, UniProt P08515 1-218 = GST); assay: A/G assays
[4] = biological target: T2, GST-TIAM1 PDZ domain fusion protein (T-lymphoma invasion and metastasis inducing protein 1 AA1001-1088); PDZ 1 … (UniProt P08515 1-218 = GST); assay: A/G assays
[5] = biological target: T3, GST-PSD95 PDZ domain fusion protein (human post-synaptic density protein 95 AA387-724; PDZ domains 1-3 of 3) (human, UniProt P08515 1-218 = GST); assay: A/G assays
T3 sequence (P08515 1-218, tags or fused parts left off): as above

[6] = biological target: T4, GST-41.8 kD PDZ domain fusion protein (hypothetical 41.8 kD protein AA4-85; PDZ domain 1 of 1) (UniProt P08515 1-218 = GST); assay: A/G assays
T4 construct: also called hypoth
T4 sequence (P08515 1-218, tags or fused parts left off): as above

[7] = biological target: T5, GST-CBP PDZ domain fusion protein (Cytohesin binding protein HE AA85-175; PDZ domain 1 of 1) (UniProt P08515 1-218 = GST); assay: A/G assays
T5 construct: also called Prot

[8] = biological target: T6, GST-SYN1a PDZ domain fusion protein (alpha1-syntrophin AA96-189; PDZ domain 1 of 1) (UniProt P08515 1-218 = GST); assay: A/G assays
T6 construct: also called SYN 1 alpha; SYNTR 1 alpha
T6 sequence (P08515 1-218, tags or fused parts left off): as above

[9] = biological target: GST-AF6 PDZ domain fusion protein (af-6 protein AA985-1077; PDZ domain 1 of 1) (UniProt P08515 1-218 = GST); assay: A/G assays
Chain of GST-AF6 PDZ domain fusion protein (af-6 protein AA985-1077; PDZ domain 1 of 1) (P08515 1-218, tags or fused parts left off): as above

[10] = biological target: GST-MINT3 PDZ domain fusion protein (human MINT3 AA11-52; PDZ domain 1 of 1) (human, UniProt P08515 1-218 = GST); assay: A/G assays
Chain of GST-MINT3 PDZ domain fusion protein (human MINT3 AA11-52; PDZ domain 1 of 1) (P08515 1-218, tags or fused parts left off): as above

[11] = biological target: T7, GST-KIAA0316 PDZ domain fusion protein (KIAA0316 AA197-284; PDZ domain 1 of 1) (UniProt P08515 1-218 = GST); assay: A/G assays
T7 construct: also called K316
T7 sequence (P08515 1-218, tags or fused parts left off): as above

[12] = biological target: GST-prIL16 PDZ domain fusion protein (putative interleukin 16 precursor AA170-383; PDZ domains 1-2 of 2) (UniProt P08515 1-218 = GST); assay: A/G assays
Chain of GST-prIL16 PDZ domain fusion protein (putative interleukin 16 precursor AA170-383; PDZ domains 1-2 of 2) (P08515 1-218, tags or fused parts left off): as above

[13] = biological target: T8, GST-RGS12 PDZ domain fusion protein (human regulator of G-protein signalling 12 AA35-103; PDZ domain 1 of 1) (human, UniProt P08515 1-218 = GST); assay: A/G assays
T8 construct: also called RSG12
T8 sequence (P08515 1-218, tags or fused parts left off): as above

[14] = biological target: GST-MPP1 PDZ domain fusion protein (55 Kd erythrocyte membrane protein AA101-186; PDZ domain 1 of 1) (UniProt P08515 1-218 = GST); assay: A/G assays
Chain of GST-MPP1 PDZ domain fusion protein (55 Kd erythrocyte membrane protein AA101-186; PDZ domain 1 of 1) (P08515 1-218, tags or fused parts left off): as above

[15] = biological target: T9, GST-KIAA0559 PDZ domain fusion protein (KIAA0559 AA766-870; PDZ1 of 1) (UniProt P08515 1-218 = GST); assay: A/G assays
T9 construct: also called K559
T9 sequence (P08515 1-218, tags or fused parts left off): as above

[16] = biological target: GST-LIM PDZ domain fusion protein (Human LIM protein AA29-112; PDZ domain 1 of 1) (human, UniProt P08515 1-218 = GST); assay: A/G assays
[17] = biological target: T10, GST-TAX33 PDZ domain fusion protein (tax interaction protein 33 AA73-162; PDZ domain 1 of 1) (UniProt P08515 1-218 = GST); assay: A/G assays
T10 construct: also called TX33
T10 sequence (P08515 1-218, tags or fused parts left off): as above

[18] = biological target: GST-PTN-4 PDZ domain fusion protein (protein-tyrosine phosphatase meg1 AA774-862; PDZ domain 1 of 1) (UniProt P08515 1-218 = GST); assay: A/G assays
Chain of GST-PTN-4 PDZ domain fusion protein (protein-tyrosine phosphatase meg1 AA774-862; PDZ domain 1 of 1) (P08515 1-218, tags or fused parts left off): as above

[19] = biological target: T11, GST-CASK PDZ domain fusion protein (CASK AA495-584; PDZ domain 1 of 1) (mouse, UniProt P08515 1-218 = GST); assay: A/G assays
T11 construct: also called mCASK
T11 sequence (P08515 1-218, tags or fused parts left off): as above

[20] = biological target: T12, GST-TAX2 PDZ domain fusion protein (human tax interaction protein 2 AA54-140; PDZ domain 1 of 1) (human, UniProt P08515 1-218 = GST); assay: A/G assays
T12 construct: also called TX 2
T12 sequence (P08515 1-218, tags or fused parts left off): as above

[21] = biological target: T13, GST-TAX43 PDZ domain fusion protein (human tax interaction protein 43 AA15-85; PDZ domain 1 of 1) (human, UniProt P08515 1-218 = GST); assay: A/G assays
T13 construct: also called TX 43
T13 sequence (P08515 1-218, tags or fused parts left off): as above

[22] = biological target: T14, GST-TAX40 PDZ domain fusion protein (human tax interaction protein 40 AA35-137; PDZ domain 1 of 1) (human, UniProt P08515 1-218 = GST); assay: A/G assays
T14 construct: also called TX 40
T14 sequence (P08515 1-218, tags or fused parts left off): as above

[23] = biological target: GST-NOS1 PDZ domain fusion protein (human neuronal nitric oxide synthase; PDZ domain 1 of 1) (human, UniProt P08515 1-218 = GST); assay: A/G assays
Chain of GST-NOS1 PDZ domain fusion protein (human neuronal nitric oxide synthase; PDZ domain 1 of 1) (P08515 1-218, tags or fused parts left off): as above

[24] = biological target: T15, GST-NeDLG PDZ domain fusion protein (presynaptic protein sao102, neuroendocrine-dlg; PDZ domains 1-2 of 3) (UniProt P08515 1-218 = GST); assay: A/G assays
T15 construct: also called NeDLG1
T15 sequence (P08515 1-218, tags or fused parts left off): as above

[25] = biological target: T16, GST-MPP2 PDZ domain fusion protein (maguk p55 subfamily member 2 (DLG2) AA185-273; PDZ domain 1 of 1) (UniProt P08515 1-218 = GST); assay: G assay
T16 construct: also called MMP2
T16 sequence (P08515 1-218, tags or fused parts left off): as above

[26] = biological target: T16, GST-MPP2 PDZ domain fusion protein …; assay: A/G assays
[27] = biological target: T3, GST-PSD95 PDZ domain fusion protein …; assay: A assay
[28] = biological target: T4, GST-41.8 kD PDZ domain fusion protein …; assay: A assay
[29] = biological target: T15, GST-NeDLG PDZ domain fusion protein …; assay: A and G assays
[30] = biological target: T15, GST-NeDLG PDZ domain fusion protein …; assay: A assay
[31] = biological target: T2, GST-TIAM1 PDZ domain fusion protein …; assay: A assay
[32] = biological target: T4, GST-41.8 kD PDZ domain fusion protein …; assay: A and G assays

Measured: binding result

T1 sequence (P08515 1-218, tags or fused parts left off): as above

Biotin-ERLKLEPHEGLLLRFPYAA [CD98 (2F4) C-terminal PL peptide AA15L, biotinylated]
binds: [25]
not listed: [26] | [27] | [28] | [29] | [30] | [31] | [32]
no binding: all other assays above

Biotin-KDSRPSFVGSSSGHTSTTL [CDW128B (IL8RB) C-terminal PL peptide AA29.2L, biotinylated]
binds: [27] | [28] | [29]
not listed: [5] | [6] | [13] | [24] | [25] | [30] | [31] | [32]
no binding: all other assays above

Biotin-VTSPNKHLGLVTPHKTELV [CD83 C-terminal PL peptide AA47L, biotinylated]
binds: [27] | [30]
not listed: [5] | [24] | [25] | [28] | [29] | [31] | [32]
no binding: all other assays above

Biotin-PKQANGGAYQKPTKQEEFYA [CD138 (syndecan) C-terminal PL peptide AA18L, biotinylated]
binds: [31] | [32]
not listed: [4] | [6] | [19] | [25] | [27] | [28] | [29] | [30]
no binding: all other assays above
